The values that follow come from paper PMC8191795 (Nucleic Acids Research, 2020).

The Kd is the free concentration of one partner at which half of the binding sites on the other are occupied at equilibrium, for simple one-to-one binding. As usually defined, the stoichiometry N is the number of molecules, sites or subunits per partner or assembly.

In series [1] the target is T1, SmcR N142D (Vibrio vulnificus, UniProt Q9L8G8 1-205, N142D).
T1 sequence: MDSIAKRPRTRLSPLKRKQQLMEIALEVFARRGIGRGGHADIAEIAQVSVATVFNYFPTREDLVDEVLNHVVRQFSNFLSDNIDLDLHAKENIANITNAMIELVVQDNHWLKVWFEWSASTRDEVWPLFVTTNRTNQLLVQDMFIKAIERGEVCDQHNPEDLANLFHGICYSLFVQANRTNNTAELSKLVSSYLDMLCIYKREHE
In words: EMSA. Background: In EMSA bound probe runs differently from free probe, usually more slowly.

The target of series [2] is T2, SmcR S76A (Vibrio vulnificus, UniProt Q9L8G8 1-205, S76A).
T2 sequence: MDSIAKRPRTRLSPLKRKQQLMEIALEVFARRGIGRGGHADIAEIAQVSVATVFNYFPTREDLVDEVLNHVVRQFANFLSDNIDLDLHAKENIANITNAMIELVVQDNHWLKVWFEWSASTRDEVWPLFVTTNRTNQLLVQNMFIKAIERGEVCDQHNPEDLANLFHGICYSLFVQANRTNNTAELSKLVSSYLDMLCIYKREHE
In words: EMSA.

The target in series [3] is T3, SmcR WT (Vibrio vulnificus, UniProt Q9L8G8 1-205).
T3 sequence: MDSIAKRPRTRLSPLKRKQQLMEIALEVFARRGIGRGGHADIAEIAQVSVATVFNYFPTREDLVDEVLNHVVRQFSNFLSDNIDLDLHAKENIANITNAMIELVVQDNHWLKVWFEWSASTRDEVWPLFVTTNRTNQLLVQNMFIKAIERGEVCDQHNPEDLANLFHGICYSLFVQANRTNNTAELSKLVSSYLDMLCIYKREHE
In words: EMSA.

Series [4] concerns the target T4, SmcR L139R (Vibrio vulnificus, UniProt Q9L8G8 1-205, L139R).
T4 sequence: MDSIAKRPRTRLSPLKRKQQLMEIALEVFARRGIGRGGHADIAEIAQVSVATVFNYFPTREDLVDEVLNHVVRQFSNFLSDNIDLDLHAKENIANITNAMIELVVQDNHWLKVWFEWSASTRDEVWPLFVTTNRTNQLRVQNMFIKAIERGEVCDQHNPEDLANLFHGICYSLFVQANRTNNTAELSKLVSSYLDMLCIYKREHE
In words: EMSA.

The target in series [5] is T5, SmcR N55I (Vibrio vulnificus, UniProt Q9L8G8 1-205, N55I).
T5 sequence: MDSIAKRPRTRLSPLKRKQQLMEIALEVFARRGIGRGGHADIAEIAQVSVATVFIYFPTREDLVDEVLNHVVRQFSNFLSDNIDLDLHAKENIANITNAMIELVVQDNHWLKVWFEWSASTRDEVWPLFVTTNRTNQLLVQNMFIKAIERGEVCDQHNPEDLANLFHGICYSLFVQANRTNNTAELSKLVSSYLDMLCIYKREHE
In words: EMSA.

In series [6] the target is his-tagged V. harveyi RNAP alpha subunit (Vibrio harveyi, UniProt A0A0B4IMU9 1-330). As to the kind of experiment: BLI. In general terms: In BLI a coated tip is dipped into the sample, and binding shifts an interference pattern.
Series [7] concerns the molecule itself. In words: SAXS.
Series [8] concerns the molecule itself. In words: SAXS. The source holds these as a separate data set.

“And” between values parts separate entries of the source, which are not always exact repeats. Identical values can stand only once. Like-named read-outs stand apart in the source and are kept apart here.

B1: PvvpM (AB316/AB317) (dsDNA)
DNA 1: ACACTTATCTTTAGTGACAAACTCATAAATAGCAAGTTCTCACACGGTC
DNA 2: GACCGTGTGAGAACTTGCTATTTATGAGTTTGTCACTAAAGATAAGTGT
For the molecule B1, the dissociation constant Kd in series [1] turned out to be 0.568 nM; in series [2], 0.167 nM; in series [3], 0.143 nM; in series [4], 0.322 nM; in series [5] it was 0.266 nM.

B2: PluxC site E T4A (JDN44/JDN45) (dsDNA)
DNA 1: TCTAATTATAGTTTGATTTATTAATAATTAGT
DNA 2: ACTAATTATTAATAAATCAAACTATAATTAGA
In the case of B2, the dissociation constant Kd in series [3] came to 1.53 nM; in series [5], 13.4 nM.

B3: PluxC site E T4A,A17T (JCV1107/JCV1108) (dsDNA)
DNA 1: TCTAATTATTGTTTGATTTATTAATAATTAGT
DNA 2: ACTAATTATTAATAAATCAAACAATAATTAGA
B3: the Kd was 2.04 nM in series [3] and 1.91 nM in series [5].

B4: PluxC site E A17T (JDN46/JDN47) (dsDNA)
DNA 1: TCTAATTATTGTTTGATTTATTTATAATTAGT
DNA 2: ACTAATTATAAATAAATCAAACAATAATTAGA
On to B4, for which the Kd in series [3] worked out at 2.71 nM; in series [5] it was 44.6 nM.

B5: SmcR wild-type, untagged (Vibrio vulnificus) (natural protein)
chain: MDSIAKRPRTRLSPLKRKQQLMEIALEVFARRGIGRGGHADIAEIAQVSVATVFNYFPTREDLVDEVLNHVVRQFSNFLSDNIDLDLHAKENIANITNAMIELVVQDNHWLKVWFEWSASTRDEVWPLFVTTNRTNQLLVQNMFIKAIERGEVCDQHNPEDLANLFHGICYSLFVQANRTNNTAELSKLVSSYLDMLCIYKREHE
Consider B5, for which the affinity in series [6], expressed as Kd, was 142 nM. This lies in the sub-micromolar range.

B6: SmcR wild-type, 6Xhis-tagged (Vibrio vulnificus) (natural protein)
chain: MDSIAKRPRTRLSPLKRKQQLMEIALEVFARRGIGRGGHADIAEIAQVSVATVFNYFPTREDLVDEVLNHVVRQFSNFLSDNIDLDLHAKENIANITNAMIELVVQDNHWLKVWFEWSASTRDEVWPLFVTTNRTNQLLVQNMFIKAIERGEVCDQHNPEDLANLFHGICYSLFVQANRTNNTAELSKLVSSYLDMLCIYKREHE
For B6, the “stoichiometry N” value in series [7] was 2 and 4.

B7: SmcR N55I, untagged (Vibrio vulnificus) (natural protein)
chain: MDSIAKRPRTRLSPLKRKQQLMEIALEVFARRGIGRGGHADIAEIAQVSVATVFIYFPTREDLVDEVLNHVVRQFSNFLSDNIDLDLHAKENIANITNAMIELVVQDNHWLKVWFEWSASTRDEVWPLFVTTNRTNQLLVQNMFIKAIERGEVCDQHNPEDLANLFHGICYSLFVQANRTNNTAELSKLVSSYLDMLCIYKREHE
In turn, B7 yielded a dissociation constant (Kd) in series [6] of 160 nM. Besides, in series [8], the “stoichiometry N” value is 2 and 4.

B8: PvvpE (AB324/AB325) (dsDNA)
DNA 1: ATAAATCAAATTTGTAACTTTATTTCTGAGATGACTGTCCCATTTATCTTATTGATAAATCTGCGTAAAAAAGAAAAAGCACAATTTTATTACTAGTGTTT
DNA 2: AAACACTAGTAATAAAATTGTGCTTTTTCTTTTTTACGCAGATTTATCAATAAGATAAATGGGACAGTCATCTCAGAAATAAAGTTACAAATTTGATTTAT
In the case of B8, the Kd in series [1] was found to be 6.68 nM; in series [2] it was 0.363 nM; in series [3], 2.18 nM; in series [4], 3.53 nM; in series [5], 142 nM.
